Data on one substance can be found in patent publication US20240199740A1.

The assay addresses soluble recombinant cynomolgus TCR α/β-zipper protein (cynomolgus/rhesus monkey). Put plainly: ELISA, 2 µg/mL coated soluble recombinant cynomolgus TCR α/β-zipper protein. (In general: ELISA stands for enzyme-linked immunosorbent assay.)

In general, EC50 (read off the curve) refers to the midpoint of the concentration-response curve.

soluble recombinant cynomolgus TCR α/β-zipper protein (cynomolgus/rhesus monkey), sequence (alpha, as listed by the source limits assumed, form in doubt, chain 1 of 2): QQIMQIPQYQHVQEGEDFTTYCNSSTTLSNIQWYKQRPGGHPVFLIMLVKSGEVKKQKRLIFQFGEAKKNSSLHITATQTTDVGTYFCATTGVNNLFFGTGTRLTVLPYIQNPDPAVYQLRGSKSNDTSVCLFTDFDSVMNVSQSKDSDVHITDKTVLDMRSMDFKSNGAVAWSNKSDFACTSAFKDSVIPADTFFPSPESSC
soluble recombinant cynomolgus TCR α/β-zipper protein (cynomolgus/rhesus monkey), sequence (beta, as listed by the source limits assumed, form in doubt, chain 2 of 2): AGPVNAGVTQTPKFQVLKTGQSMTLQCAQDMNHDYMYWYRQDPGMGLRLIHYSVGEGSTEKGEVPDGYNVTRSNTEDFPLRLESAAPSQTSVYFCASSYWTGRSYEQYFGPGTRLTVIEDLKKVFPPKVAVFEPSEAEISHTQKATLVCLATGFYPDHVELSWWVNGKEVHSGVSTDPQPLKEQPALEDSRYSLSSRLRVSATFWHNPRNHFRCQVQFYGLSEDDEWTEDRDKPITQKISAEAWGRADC

On to “anti-non-human primate/Rat TCRα/β antibody clone R73”, for which the EC50 (read off the curve) came to 0.1 nM.
